From US20240368263A1 (PROMETHEUS BIOSCIENCES, published 2024) come the findings set out here.

Read-outs that look alike come from different tables or passages of the source.

Assay [1] has as its target T1, human TL1A (endogenous, human whole blood assay) (human, UniProt O95150 1-251, limits assumed).
T1 sequence (looked up): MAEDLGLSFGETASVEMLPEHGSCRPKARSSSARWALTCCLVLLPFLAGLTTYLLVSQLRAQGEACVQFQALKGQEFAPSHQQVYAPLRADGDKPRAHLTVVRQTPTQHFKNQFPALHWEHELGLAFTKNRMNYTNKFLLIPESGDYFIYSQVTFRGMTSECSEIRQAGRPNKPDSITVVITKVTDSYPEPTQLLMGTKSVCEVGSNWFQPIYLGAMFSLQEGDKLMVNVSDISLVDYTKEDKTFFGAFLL
Briefly: cell-based or functional assay.

Assay [2] deals with T1, human TL1A (endogenous, human whole …). As to the kind of experiment: cell-based or functional assay. The source holds these as a separate data set.
For assay [3], the target named is T2, cynomolgus TL1A (endogenous, cynomolgus whole blood) (cynomolgus monkey, UniProt G7PRK8 1-251).
T2 sequence: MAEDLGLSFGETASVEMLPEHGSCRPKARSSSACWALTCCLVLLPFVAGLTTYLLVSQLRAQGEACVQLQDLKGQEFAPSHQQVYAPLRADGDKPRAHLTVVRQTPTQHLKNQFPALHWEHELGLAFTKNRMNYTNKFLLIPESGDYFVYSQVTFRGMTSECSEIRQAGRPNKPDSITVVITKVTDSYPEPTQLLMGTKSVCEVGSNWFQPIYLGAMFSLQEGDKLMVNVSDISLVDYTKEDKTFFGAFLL
Briefly: cell-based or functional assay.

Assay [4] concerns the target T1, human TL1A (endogenous, human whole …). As to the kind of experiment: cell-based or functional assay. The source holds these as a separate data set.
Assay [5] addresses T3, human TL1A (Fitzgerald, Prod. #30R-AT070) (human, UniProt O95150 72-251, limits assumed, biotinylated with EZ-Link Sulfo-NHS-LC-Biotin where used as soluble antigen).
T3 construct: also called TNFSF15; biotinylated human TL1A
T3 sequence (looked up): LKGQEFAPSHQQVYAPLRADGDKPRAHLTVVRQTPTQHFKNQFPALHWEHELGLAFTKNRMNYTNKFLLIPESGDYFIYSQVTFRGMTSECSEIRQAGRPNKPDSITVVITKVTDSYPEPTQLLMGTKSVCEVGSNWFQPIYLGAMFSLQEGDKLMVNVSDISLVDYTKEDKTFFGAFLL
As to the kind of experiment: capture lift hit at 200 pM b-TL1A, unmutated sequence.

For assay [6], the target named is T3, human TL1A (Fitzgerald, Prod. …). Briefly: ELISA.
Assay [7] has the same target. As to the kind of experiment: capture lift hit at 15 pM b-TL1A, unmutated sequence.
The target in assay [8] is T4, membrane-associated human TL1A on transfected HEK293 cells (human, UniProt O95150 1-251).
T4 construct: whole, on cells
T4 sequence (looked up): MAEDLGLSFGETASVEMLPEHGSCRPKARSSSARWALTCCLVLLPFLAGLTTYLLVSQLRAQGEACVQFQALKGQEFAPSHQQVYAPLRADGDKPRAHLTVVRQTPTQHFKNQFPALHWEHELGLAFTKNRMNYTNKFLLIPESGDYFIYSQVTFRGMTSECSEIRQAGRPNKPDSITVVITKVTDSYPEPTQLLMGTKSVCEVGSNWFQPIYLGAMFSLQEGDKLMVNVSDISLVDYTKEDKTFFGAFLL
As to the kind of experiment: flow cytometry, HEK293 cells transfected with human TL1A. How it is done:
All the Fab variants were tested for binding to membrane-associated human TL1A. For these studies a HEK293 cell line that had been transfected with human TL1A was used. The 293 cells expressing membrane bound human TL1A were maintained in DMEM containing L-glutamine, glucose, sodium pyruvate, and phenol red (ThermoFisher cat #11995-065) plus 10% fetal bovine serum, 1X penicillin-streptomycin (Fisher cat #15140122) and 2 μg/ml puromycin (Gibco cat #A11138-03) in a 37° C. incubator with 5% CO2. Three days prior to the assay, a T-75 flask was seeded with 3×10⁶ cells so that the flask was 90-95% confluent on the day of the assay. The media was aspirated and the cell monolayer was gently washed with 5 ml PBS. Adherent cells were removed by repeatedly pipetting 10 ml ice cold 1% BSA/PBS against the monolayer. The cells were counted and 5×10⁵ were aliquoted for each sample to be analyzed. The cells were collected by centrifuging at 300× g at 4° C. for 5 minutes and the wash was discarded. The cells were resuspended in 100 μl Fab or IgG diluted in 1% BSA/PBS and placed on ice for 30 min. Next, the cells were washed with 1 ml 1% BSA/PBS and collected by centrifuging at 300× g at 4° C. for 5 min. The wash was discarded and 100 μl secondary goat F (ab′) 2 anti-human kappa FITC (Southern Biotech cat #2062-02) or goat F (ab′) 2 anti-human IgG PE (Southern Biotech cat #2043-09) conjugate, diluted 1:200 in BSA/PBS was added. Cells were placed on ice for 30 min. Finally, the cells were washed with 1 ml BSA/PBS, collected by centrifuging at 300× g at 4° C. for 5 min. The wash was removed and the cells were resuspended in 500 μl 1% BSA/PBS. One drop of Sytox AADvanced ReadyFlow Reagent (ThermoFisher cat #R37173) was added per sample and the samples were analyzed on the Attune NXT Flow Cytometer (ThermoFisher).

The target of assay [9] is LIGHT/TNFSF14 (R&D Systems, cat. no. 664-LI/CF) (UniProt O43557 74-240). As to the kind of experiment: ELISA, antigen coated at 1 µg/ml, Fab titrated.
Assay [10] has as its target TRAIL/TNFSF10 (R&D Systems, cat. no. 375-TL/CF) (UniProt P50591 114-281). As to the kind of experiment: ELISA, antigen coated at 1 µg/ml, Fab titrated.
The target in assay [11] is T5, Fas/TNFSF6 (R&D Systems, cat. no. 126-FL/CF) (UniProt P48023 134-281).
T5 sequence (looked up): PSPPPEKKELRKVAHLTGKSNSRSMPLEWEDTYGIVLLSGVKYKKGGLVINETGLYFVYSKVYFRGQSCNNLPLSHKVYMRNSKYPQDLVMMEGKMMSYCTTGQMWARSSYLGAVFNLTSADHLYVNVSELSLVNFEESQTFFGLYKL
As to the kind of experiment: ELISA, antigen coated at 1 µg/ml, Fab titrated.

Sequence of LIGHT/TNFSF14 (R&D Systems, cat. no. 664-LI/CF) (O43557 74-240 limits assumed): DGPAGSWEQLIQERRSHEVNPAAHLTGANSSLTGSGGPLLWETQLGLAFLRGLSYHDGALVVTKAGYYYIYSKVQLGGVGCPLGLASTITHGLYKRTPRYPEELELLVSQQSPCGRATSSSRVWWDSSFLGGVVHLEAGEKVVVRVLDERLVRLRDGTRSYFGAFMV
Sequence of TRAIL/TNFSF10 (R&D Systems, cat. no. 375-TL/CF) (P50591 114-281 limits assumed): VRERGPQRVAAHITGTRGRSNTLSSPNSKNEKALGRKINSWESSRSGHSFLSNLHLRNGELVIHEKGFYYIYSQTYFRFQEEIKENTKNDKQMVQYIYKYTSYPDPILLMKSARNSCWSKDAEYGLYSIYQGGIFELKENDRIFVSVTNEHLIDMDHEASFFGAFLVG

B1: clone 23, modified IgG1 / kappa (antibody)
heavy: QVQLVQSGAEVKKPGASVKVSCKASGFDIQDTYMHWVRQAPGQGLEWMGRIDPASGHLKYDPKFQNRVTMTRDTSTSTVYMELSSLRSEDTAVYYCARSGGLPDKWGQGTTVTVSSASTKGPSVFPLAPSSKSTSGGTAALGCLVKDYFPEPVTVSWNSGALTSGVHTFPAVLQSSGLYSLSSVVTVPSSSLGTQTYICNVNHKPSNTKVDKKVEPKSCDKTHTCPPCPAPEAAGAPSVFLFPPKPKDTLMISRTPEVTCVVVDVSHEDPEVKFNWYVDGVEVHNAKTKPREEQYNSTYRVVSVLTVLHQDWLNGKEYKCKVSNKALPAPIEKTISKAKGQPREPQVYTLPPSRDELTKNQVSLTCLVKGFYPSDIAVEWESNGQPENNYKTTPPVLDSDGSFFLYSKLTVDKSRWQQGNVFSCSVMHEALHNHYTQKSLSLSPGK
light: EIVLTQSPGTLSLSPGERATLSCRASSSVSYMYWYQQKPGQAPRLLIYATSNLASGIPDRFSGSGSGTDFTLTISRLEPEDFAVYYCQQWEGNPRTFGGGTKLEIKRTVAAPSVFIFPPSDEQLKSGTASVVCLLNNFYPREAKVQWKVDNALQSGNSQESVTEQDSKDSTYSLSSTLTLSKADYEKHKVYACEVTHQGLSSPVTKSFNRGEC
As for B1, the “IC50, inhibition of IFN-γ production, human whole blood assay” value (from here on “IC50, inhibition of IFN-γ production”) in assay [1] is 0.41 nM. Moreover, the “Potency (IC50, nM), human whole blood assay, mean” value in [2] worked out at 0.64 nM. Moreover, the “Potency (IC50, nM), cynomolgus whole blood assay, mean” value in assay [3] was found to be 0.72 nM.

B2: clone 34, modified IgG1 / kappa (antibody)
heavy: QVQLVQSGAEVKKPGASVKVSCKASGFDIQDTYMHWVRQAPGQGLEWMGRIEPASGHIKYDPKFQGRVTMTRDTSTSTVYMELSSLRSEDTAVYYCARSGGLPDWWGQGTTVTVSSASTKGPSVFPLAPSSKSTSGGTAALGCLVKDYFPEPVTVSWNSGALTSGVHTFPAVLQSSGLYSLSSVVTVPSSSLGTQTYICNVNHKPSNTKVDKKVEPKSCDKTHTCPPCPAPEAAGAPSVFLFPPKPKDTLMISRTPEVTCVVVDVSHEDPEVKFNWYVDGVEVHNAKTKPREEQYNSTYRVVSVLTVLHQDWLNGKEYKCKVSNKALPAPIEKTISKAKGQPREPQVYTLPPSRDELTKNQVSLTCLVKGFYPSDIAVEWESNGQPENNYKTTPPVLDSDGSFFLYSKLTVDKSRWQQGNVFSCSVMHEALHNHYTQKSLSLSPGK
light: EIVLTQSPGTLSLSPGERATLSCRASSSVSYMYWYQQKPGQAPRLLIYATSNLASGIPDRFSGSGSGTDFTLTISRLEPEDFAVYYCQQWEGNPRTFGGGTKLEIKRTVAAPSVFIFPPSDEQLKSGTASVVCLLNNFYPREAKVQWKVDNALQSGNSQESVTEQDSKDSTYSLSSTLTLSKADYEKHKVYACEVTHQGLSSPVTKSFNRGEC
As to B2, in assay [1], the “IC50, inhibition of IFN-γ production” value was 0.18 nM. Further, the “Potency (IC50, nM), human whole blood assay, mean” value in [2] was 0.24 nM. In assay [3], the “Potency (IC50, nM), cynomolgus whole blood assay, mean” value was 0.21 nM.

B3: clone 14, modified IgG1 / kappa (antibody)
heavy: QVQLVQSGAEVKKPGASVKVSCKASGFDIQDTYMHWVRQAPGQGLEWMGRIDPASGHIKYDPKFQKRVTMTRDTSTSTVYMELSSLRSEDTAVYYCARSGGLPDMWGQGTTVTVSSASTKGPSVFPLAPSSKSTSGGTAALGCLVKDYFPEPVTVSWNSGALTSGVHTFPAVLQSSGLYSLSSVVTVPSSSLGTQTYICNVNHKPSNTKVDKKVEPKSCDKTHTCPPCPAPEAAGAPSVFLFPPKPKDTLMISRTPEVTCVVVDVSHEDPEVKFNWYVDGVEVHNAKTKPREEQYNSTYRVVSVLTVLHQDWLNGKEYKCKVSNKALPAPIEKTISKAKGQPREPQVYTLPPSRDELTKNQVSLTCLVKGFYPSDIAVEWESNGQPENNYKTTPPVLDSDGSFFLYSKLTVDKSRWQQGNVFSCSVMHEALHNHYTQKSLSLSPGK
light: EIVLTQSPGTLSLSPGERATLSCRASSSVSYMYWYQQKPGQAPRLLIYATSNLASGIPDRFSGSGSGTDFTLTISRLEPEDFAVYYCQQWQGNPRTFGGGTKLEIKRTVAAPSVFIFPPSDEQLKSGTASVVCLLNNFYPREAKVQWKVDNALQSGNSQESVTEQDSKDSTYSLSSTLTLSKADYEKHKVYACEVTHQGLSSPVTKSFNRGEC
On to B3, for which the “IC50, inhibition of IFN-γ production” value in [1] is 0.19 nM. Further, the “Potency (IC50, nM), human whole blood assay, mean” value in assay [2] came to 0.3 nM. The “Potency (IC50, nM), cynomolgus whole blood assay, mean” value in assay [3] was 0.28 nM.

B4: clone 53, modified IgG1 / kappa (antibody, V domains shown)
VH: QVQLVQSGAEVKKPGASVKVSCKASGFDIQDTYMHWVRQAPGQGLEWMGRIEPASGHLKYDPKFQERVTMTRDTSTSTVYMELSSLRSEDTAVYYCARSGGLPDKWGQGTTVTVSS
VL: EIVLTQSPGTLSLSPGERATLSCRASSSVSYMYWYQQKPGQAPRLLIYATSNLASGIPDRFSGSGSGTDFTLTISRLEPEDFAVYYCQQWEGNPRTFGGGTKLEIKR
As for B4, the “fold greater potency towards human TL1A than cynomolgus TL1A, whole blood assays” value in assay [4] was about 2 fold. For the same molecule, the “IC50, inhibition of IFN-γ production” value in assay [1] amounted to 0.39 nM. Besides, in assay [2], the “Potency (IC50, nM), human whole blood assay, mean” value is 0.59 nM. Further, the “Potency (IC50, nM), cynomolgus whole blood assay, mean” value in assay [3] was 1.32 nM.

B5: murine 5C3D11 monoclonal antibody (antibody, V domains shown)
VH: EVQLQQSGAELVKPGASVKLSCTASGFDIQDTYMHWVKQRPEQGLEWIGRIDPASGHTKYDPKFQVKATITTDTSSNTAYLQLSSLTSEDTAVYYCSRSGGLPDVWGAGTTVTVSS
VL: QIVLSQSPAILSASPGEKVTMTCRASSSVSYMYWYQQKPGSSPKPWIYATSNLASGVPDRFSGSGSGTSYSLTISRVEAEDAATYYCQQWSGNPRTFGGGTKLEIK
Take B5: in assay [4], the “IC50, inhibition of IFN-γ production” value was 1.38 nM. In addition, the “Potency (IC50, nM), cynomolgus whole blood assay, mean” value in [3] was 0.18 nM.

B6: 1D1 anti-TL1A antibody (antibody, V domains shown)
VH: QVQLVQSGAEVKKPGASVKVSCKASGYDFTYYGISWVRQAPGQGLEWMGWISTYNGNTHYARMLQGRVTMTTDTSTRTAYMELRSLRSDDTAVYYCARENYYGSGAYRGGMDVWGQGTTVTVSS
VL: EIVLTQSPATLSLSPGERATLSCRASQSVSSYLAWYQQKPGQAPRLLIYDASNRATGIPARFSGSGSGTDFTLTISSLEPEDFAVYYCQQRSNWPWTFGQGTKVEIK
In the case of B6, in assay [2], the “Potency (IC50, nM), human whole blood assay, mean” value came to 0.27 nM.

B7: L8 (CDR graft) Fab (Fab, V domains shown)
VH: QVQLVQSGAEVKKPGASVKVSCKASGFDIQDTYMHWVRQAPGQGLEWMGRIDPASGHTKYDPKFQVRVTMTRDTSTSTVYMELSSLRSEDTAVYYCARSGGLPDVWGQGTTVTVSS
VL: EIVLTQSPGTLSLSPGERATLSCRASSSVSYMYWYQQKPGQAPRLLIYATSNLASGIPDRFSGSGSGTDFTLTISRLEPEDFAVYYCQQWSGNPRTFGGGTKLEIK
notes: Fab; also called CDR graft clone L8; CDR-grafted variant
In the case of B7, the binding result in assay [5] was “binds”.

B8: 12835 (humanized 5C3D11) antibody, IgG format (antibody, V domains shown)
VH: QVQLVQSGAEVKKPGASVKLSCKASGFDIQDTYMHWVRQAPGQGLEWMGRIDPASGHTKYDPKFQVRVTMTTDTSTSTVYMELSSLRSEDTAVYYCSRSGGLPDVWGQGTTVTVSS
VL: EIVLTQSPGTLSLSPGERVTMSCRASSSVSYMYWYQQKPGQAPRPWIYATSNLASGVPDRFSGSGSGTDYTLTISRLEPEDFAVYYCQQWSGNPRTFGGGTKLEIK
Regarding B8, in [4], the “IC50, inhibition of IFN-γ production” value amounted to 9.28 nM.

B9: L3-4 (S92N) Fab (Fab, V domains shown)
VH: QVQLVQSGAEVKKPGASVKVSCKASGFDIQDTYMHWVRQAPGQGLEWMGRIDPASGHTKYDPKFQVRVTMTRDTSTSTVYMELSSLRSEDTAVYYCARSGGLPDVWGQGTTVTVSS
VL: EIVLTQSPGTLSLSPGERATLSCRASSSVSYMYWYQQKPGQAPRLLIYATSNLASGIPDRFSGSGSGTDFTLTISRLEPEDFAVYYCQQWNGNPRTFGGGTKLEIK
notes: Fab; also called 18-7 S92N light chain with 21-3 heavy chain
In the case of B9, the binding result in assay [6] was “binds”.

B10: Clone L8mod Fab (Fab, V domains shown)
VH: QVQLVQSGAEVKKPGASVKVSCKASGFDIQDTYMHWVRQAPGQGLEWMGRIDPASGHTKYDPKFQGRATITTDTSASTAYLQLSSLRSEDTAVYYCARSGGLPDVWGQGTTVTVSS
VL: EIVLTQSPGTLSLSPGERATLSCRASSSVSYMYWYQQKPGQAPRLLIYATSNLASGIPDRFSGSGSGTDFTLTISRLEPEDFAVYYCQQWSGNPRTFGGGTKLEIK
notes: Fab
On to B10, for which the binding result in assay [7] is “binds”; in assay [8] it was “binds”; in assay [9] it was “no binding”; in assay [10], “no binding”; in [11] it was “no binding”.

B11: L3-4 (S92Q) Fab (Fab, V domains shown)
VH: QVQLVQSGAEVKKPGASVKVSCKASGFDIQDTYMHWVRQAPGQGLEWMGRIDPASGHTKYDPKFQVRVTMTRDTSTSTVYMELSSLRSEDTAVYYCARSGGLPDVWGQGTTVTVSS
VL: EIVLTQSPGTLSLSPGERATLSCRASSSVSYMYWYQQKPGQAPRLLIYATSNLASGIPDRFSGSGSGTDFTLTISRLEPEDFAVYYCQQWQGNPRTFGGGTKLEIK
notes: Fab; also called 18-7 S92Q light chain with 21-3 heavy chain
With B11, the binding result in assay [6] was “binds”.
